Data on four molecules can be found in paper doi:10.1101/2021.03.28.437436.

Assay [1] deals with Recombinant catalytically inactive S195A thrombin mutant (UniProt P00734). In words: other fluorescence titration.
The target in assay [2] is Nα-fluoresceinated hirugen, [F]-hirugen. In words: other fluorescence titration.
In assay [3] the target is N-terminal 6xHis-tag derivative of human α-synuclein (6xHis-αSyn) (human) (UniProt P37840). In words: SPR.
For assay [4], the target named is Human plasma α-thrombin (αT) (human). As to the kind of experiment: other fluorescence titration.

Square brackets hold non-standard residues; d marks the D form. Ends that are not written are not given here. pY = N[C@@H](Cc1ccc(OP(=O)(O)O)cc1)C(=O)O

Turning to “Hirugen (C-terminal peptide 54-65 of hirudin HV1)”, in assay [1], the increase of [F]-hirugen fluorescence on displacement is 65%.

Regarding “Recombinant catalytically inactive S195A thrombin mutant (from UniProt P00734) (enzyme)”, the results for the Kd in assay [2] and in assay [3] were 30 nM and 44 nM, respectively.

Consider βT-thrombin (βTT) (enzyme), for which the fold decrease in affinity against S195A in assay [3] was 1.5 fold.

B1: Fibrinogen γ’-peptide (C-terminal peptide 408-427 of fibrinogen elongated γ-chain splice variant) (peptide)
peptide: VRPEHPAETE[pY]DSL[pY]PEDDL
In turn, B1 had a fold decrease in affinity with 20 μM αSyn against no αSyn in assay [4] of 3 fold.
